From publication PMC11643744, “New Conjugates of Vancomycin with Cell-Penetrating Peptides—Synthesis, Antimicrobial Activity, Cytotoxicity, and BBB Permeability Studies” (Molecules, 2024)
Each block holds one compound with its values, some of them ahead of it. Peptide text beside a SMILES is read from it. * marks the point of attachment. Propioloyl = C#CC(=O)*

Tests used:
PAMPA-BBB assay = experiment: PAMPA-BBB assay
From the text: This assay utilized a 96-well plate assembly consisting of a filter plate pre-coated with polar brain lipids (donor plate) and a receiver plate (acceptor plate). The phospholipid mixture used to coat the membrane was extracted from porcine polar brain lipids, with the following composition: 12.6% phosphatidylcholine, 33.1% phosphatidylethanolamine, 18.5% phosphatidylserine, 4.1% phosphatidylinositol, 0.8% phosphatidic acid, and 30.9% of other compounds, including cerebrosides, sulfatides, and pigments.
In each well of the donor filtration plate (Multiscreen Filter Plate, PVDF with a pore size of 0.45 µm), 5 µL of the phospholipid mixture in n-dodecane (20 mg/mL) was carefully applied to form the artificial membrane. After coating, 200 µL of phosphate-buffered saline (PBS at pH 7.4) containing 5% dimethyl sulfoxide (DMSO) as a co-solvent, and the test compound (at a concentration of 20 µM) was added to each well of the donor plate (in triplicate). […] The plate lid was then replaced and the resulting assembled donor–acceptor plates were incubated at room temperature for 20 h. After this time, the donor plate was removed and solutions from each well of both acceptor and donor plates were collected for further analysis. The concentrations of the tested compounds were determined by LC-MS. The analysis was conducted by UHPLC-MS system (Shimadzu Nexera X2 with LCMS-2020 detector) using a ReproSil Pure 120 ODS-3 column (Dr. Maisch GmbH, 100 × 2 mm, 2.4 µm particle size) with several gradients of ACN with 0.1% FA and 0.05% TFA at a flow rate of 0.3 mL/min. The eluted solution was monitored by an ESI-MS detector operated in a selected ion monitoring mode (SIM). […] CE=CD×VD+CA×VA/VD+VA

[1] = tested on: normal human fibroblasts, BJ line (CRL-2522); experiment: Neutral red cytotoxicity assay
Method: Normal human fibroblasts, BJ line (CRL-2522™), Eagle’s Minimum Essential Medium (EMEM), and fetal bovine serum (FBS) were obtained from ATCC (Manassas, VA, USA). Cells were grown following ATCC guidelines in an EMEM medium supplemented with 10% FBS at 37 °C in a humidified atmosphere of 95% air and 5% CO2 in a HeraCell 150 incubator (Heraeus, Hanau, Germany).
The assay was performed as per previously published protocols with slight modifications. In brief, BJ cells were plated in 96-well tissue culture plates (Nest Scientific Biotechnology, Wuxi, China) at a density of 6 × 10^3 cells per well and allowed to attach for 24 h in EMEM supplemented with 10% FBS. After the incubation period, the medium was removed, and 10% dimethyl sulfoxide (DMSO)-treated cells (Sigma-Aldrich, St. Louis, MO, USA) were used as a positive control, while nontreated cells served as a negative control.
The cells were treated with peptides suspended in EMEM medium supplemented with 10% FBS and incubated for 24 h at 37 °C in a humidified atmosphere of 95% air and 5% CO2. After the incubation, the supernatants were discarded and replaced with 100 µL of non-supplemented EMEM containing 0.33% neutral red (Sigma-Aldrich) diluted 1:40. The cells were incubated for an additional 2 h at 37 °C. Following incubation, the neutral red medium was removed, and the cells were washed with 100 µL of phosphate-buffered saline (PBS) per well.
To extract the dye into the solution, the cells were treated with 150 µL of a solution containing 50% ethanol (Alchem, Torun, Poland), 49% distilled H2O, and 1% acetic acid (Alchem, Torun, Poland) and incubated under shaking at 37 °C for 10 min. Absorbance was measured at 540 nm using a Synergy H1 plate reader (BioTek Instruments, Winooski, VT, USA). The assay was performed in triplicate to ensure reproducibility.

SMILES: C#CC(=O)N[C@@H](Cc1ccc(O)cc1)C(=O)N[C@@H](C)C(=O)N[C@@H](CCCNC(=N)N)C(=O)N[C@@H](C)C(=O)N[C@@H](C)C(=O)N[C@@H](C)C(=O)N[C@@H](CCCNC(=N)N)C(=O)N[C@@H](CCC(N)=O)C(=O)N[C@@H](C)C(=O)N[C@@H](CCCNC(=N)N)C(=O)N[C@@H](C)C(N)=O [compound 9] (Propioloyl-YARAAARQARA-NH2)
- R, mass retention (PAMPA-BBB assay; 20 h incubation, mean ± SEM): 6.7 ± 1.5%

SMILES: CN[C@H](CC(C)C)C(=O)N[C@H]1C(=O)N[C@@H](CC(N)=O)C(=O)N[C@H]2C(=O)N[C@H]3C(=O)N[C@H](C(=O)N[C@H](C(=O)O)c4cc(O)cc(O)c4-c4cc3ccc4O)[C@H](O)c3ccc(c(Cl)c3)Oc3cc2cc(c3O[C@@H]2O[C@H](CO)[C@@H](O)[C@H](O)[C@H]2O[C@H]2C[C@](C)(NC(=O)CCC(=O)NCCSSCCn3cc(C(=O)N[C@@H](Cc4ccc(O)cc4)C(=O)NCC(=O)N[C@@H](CCCNC(=N)N)C(=O)N[C@@H](CCCCN)C(=O)N[C@@H](CCCCN)C(=O)N[C@@H](CCCNC(=N)N)C(=O)N[C@@H](CCCNC(=N)N)C(=O)N[C@@H](CCC(N)=O)C(=O)N[C@@H](CCCNC(=N)N)C(=O)N[C@@H](CCCNC(=N)N)C(=O)N[C@@H](CCCNC(=N)N)C(N)=O)nn3)[C@H](O)[C@H](C)O2)Oc2ccc(cc2Cl)[C@H]1O [compound 8]
- R, mass retention (PAMPA-BBB assay; 20 h incubation, mean ± SEM): 31.5 ± 1.5%

SMILES: CN[C@H](CC(C)C)C(=O)N[C@H]1C(=O)N[C@@H](CC(N)=O)C(=O)N[C@H]2C(=O)N[C@H]3C(=O)N[C@H](C(=O)N[C@H](C(=O)NCCSSCCn4cc(C(=O)N[C@@H](Cc5ccc(O)cc5)C(=O)N[C@@H](C)C(=O)N[C@@H](CCCNC(=N)N)C(=O)N[C@@H](C)C(=O)N[C@@H](C)C(=O)N[C@@H](C)C(=O)N[C@@H](CCCNC(=N)N)C(=O)N[C@@H](CCC(N)=O)C(=O)N[C@@H](C)C(=O)N[C@@H](CCCNC(=N)N)C(=O)N[C@@H](C)C(N)=O)nn4)c4cc(O)cc(O)c4-c4cc3ccc4O)[C@H](O)c3ccc(c(Cl)c3)Oc3cc2cc(c3O[C@@H]2O[C@H](CO)[C@@H](O)[C@H](O)[C@H]2O[C@H]2C[C@](C)(N)[C@H](O)[C@H](C)O2)Oc2ccc(cc2Cl)[C@H]1O [compound 12]
- effect on cell viability ([1]; across the tested concentration range, 24 h): did not significantly affect cell viability
- R, mass retention (PAMPA-BBB assay; 20 h incubation, mean ± SEM): 12.7 ± 2.2%
- Papp at 20 h, 20 µM (PAMPA-BBB assay; pig, PAMPA, pH 7.4, Pe, effective permeability coefficient, 20 h incubation, 20 µM, pH 7.4, mean ± SEM): 0.036 ± 0.004 ×10⁻⁶ cm/s

- R, mass retention (PAMPA-BBB assay; PAMPA, 20 h, 20 µM, pH 7.4): 12.0 ± 3.3%
- Papp at 20 h, 20 µM (PAMPA-BBB assay; PAMPA, pH 7.4): 3.44 ± 0.1 ×10⁻⁶ cm/s
SMILES: O=C(O)Cc1ccccc1Nc1c(Cl)cccc1Cl [Diclofenac, reference compound]

SMILES: CN[C@H](CC(C)C)C(=O)N[C@H]1C(=O)N[C@@H](CC(N)=O)C(=O)N[C@H]2C(=O)N[C@H]3C(=O)N[C@H](C(=O)N[C@H](C(=O)NCCOCCOCCOCCn4cc(C(=O)N[C@@H](CCCNC(=N)N)C(=O)N[C@@H](CCCNC(=N)N)C(=O)N[C@@H](CCCNC(=N)N)C(=O)N[C@@H](CCCNC(=N)N)C(=O)N[C@@H](CCCNC(=N)N)C(=O)N[C@@H](CCCNC(=N)N)C(=O)N[C@@H](CCCNC(=N)N)C(=O)N[C@@H](CCCNC(=N)N)C(=O)N[C@@H](CCCNC(=N)N)C(N)=O)nn4)c4cc(O)cc(O)c4-c4cc3ccc4O)[C@H](O)c3ccc(c(Cl)c3)Oc3cc2cc(c3O[C@@H]2O[C@H](CO)[C@@H](O)[C@H](O)[C@H]2O[C@H]2C[C@](C)(N)[C@H](O)[C@H](C)O2)Oc2ccc(cc2Cl)[C@H]1O [compound 15]
- R, mass retention (PAMPA-BBB assay; 20 h incubation, mean ± SEM): 2.7 ± 0.9%

SMILES: CN[C@H](CC(C)C)C(=O)N[C@H]1C(=O)N[C@@H](CC(N)=O)C(=O)N[C@H]2C(=O)N[C@H]3C(=O)N[C@H](C(=O)N[C@H](C(=O)NCCOCCOCCOCCn4cc(C(=O)N[C@@H](Cc5ccc(O)cc5)C(=O)NCC(=O)N[C@@H](CCCNC(=N)N)C(=O)N[C@@H](CCCCN)C(=O)N[C@@H](CCCCN)C(=O)N[C@@H](CCCNC(=N)N)C(=O)N[C@@H](CCCNC(=N)N)C(=O)N[C@@H](CCC(N)=O)C(=O)N[C@@H](CCCNC(=N)N)C(=O)N[C@@H](CCCNC(=N)N)C(=O)N[C@@H](CCCNC(=N)N)C(N)=O)nn4)c4cc(O)cc(O)c4-c4cc3ccc4O)[C@H](O)c3ccc(c(Cl)c3)Oc3cc2cc(c3O[C@@H]2O[C@H](CO)[C@@H](O)[C@H](O)[C@H]2O[C@H]2C[C@](C)(N)[C@H](O)[C@H](C)O2)Oc2ccc(cc2Cl)[C@H]1O [compound 5]
- R, mass retention (PAMPA-BBB assay; 20 h incubation, mean ± SEM): 8.7 ± 3.8%

SMILES: C[S+](C)[O-] [DMSO, dimethyl sulfoxide, reference compound]
- cell viability [1]: approximately 21%

SMILES: CN[C@H](CC(C)C)C(=O)N[C@H]1C(=O)N[C@@H](CC(N)=O)C(=O)N[C@H]2C(=O)N[C@H]3C(=O)N[C@H](C(=O)N[C@H](C(=O)O)c4cc(O)cc(O)c4-c4cc3ccc4O)[C@H](O)c3ccc(c(Cl)c3)Oc3cc2cc(c3O[C@@H]2O[C@H](CO)[C@@H](O)[C@H](O)[C@H]2O[C@H]2C[C@](C)(NC(=O)CCOCCOCCOCCOCCn3cc(C(=O)N[C@@H](Cc4ccc(O)cc4)C(=O)NCC(=O)N[C@@H](CCCNC(=N)N)C(=O)N[C@@H](CCCCN)C(=O)N[C@@H](CCCCN)C(=O)N[C@@H](CCCNC(=N)N)C(=O)N[C@@H](CCCNC(=N)N)C(=O)N[C@@H](CCC(N)=O)C(=O)N[C@@H](CCCNC(=N)N)C(=O)N[C@@H](CCCNC(=N)N)C(=O)N[C@@H](CCCNC(=N)N)C(N)=O)nn3)[C@H](O)[C@H](C)O2)Oc2ccc(cc2Cl)[C@H]1O [compound 6]
- R, mass retention (PAMPA-BBB assay; 20 h incubation, mean ± SEM): 77.7 ± 0.3%

SMILES: CN[C@H](CC(C)C)C(=O)N[C@H]1C(=O)N[C@@H](CC(N)=O)C(=O)N[C@H]2C(=O)N[C@H]3C(=O)N[C@H](C(=O)N[C@H](C(=O)NCCSSCCn4cc(C(=O)N[C@@H](Cc5ccc(O)cc5)C(=O)NCC(=O)N[C@@H](CCCNC(=N)N)C(=O)N[C@@H](CCCCN)C(=O)N[C@@H](CCCCN)C(=O)N[C@@H](CCCNC(=N)N)C(=O)N[C@@H](CCCNC(=N)N)C(=O)N[C@@H](CCC(N)=O)C(=O)N[C@@H](CCCNC(=N)N)C(=O)N[C@@H](CCCNC(=N)N)C(=O)N[C@@H](CCCNC(=N)N)C(N)=O)nn4)c4cc(O)cc(O)c4-c4cc3ccc4O)[C@H](O)c3ccc(c(Cl)c3)Oc3cc2cc(c3O[C@@H]2O[C@H](CO)[C@@H](O)[C@H](O)[C@H]2O[C@H]2C[C@](C)(N)[C@H](O)[C@H](C)O2)Oc2ccc(cc2Cl)[C@H]1O [compound 7]
- R, mass retention (PAMPA-BBB assay; 20 h incubation, mean ± SEM): 23.8 ± 4.9%

SMILES: CN[C@H](CC(C)C)C(=O)N[C@H]1C(=O)N[C@@H](CC(N)=O)C(=O)N[C@H]2C(=O)N[C@H]3C(=O)N[C@H](C(=O)N[C@H](C(=O)O)c4cc(O)cc(O)c4-c4cc3ccc4O)[C@H](O)c3ccc(c(Cl)c3)Oc3cc2cc(c3O[C@@H]2O[C@H](CO)[C@@H](O)[C@H](O)[C@H]2O[C@H]2C[C@](C)(NC(=O)CCOCCOCCOCCOCCn3cc(C(=O)N[C@@H](CCCNC(=N)N)C(=O)N[C@@H](CCCNC(=N)N)C(=O)N[C@@H](CCCNC(=N)N)C(=O)N[C@@H](CCCNC(=N)N)C(=O)N[C@@H](CCCNC(=N)N)C(=O)N[C@@H](CCCNC(=N)N)C(=O)N[C@@H](CCCNC(=N)N)C(=O)N[C@@H](CCCNC(=N)N)C(=O)N[C@@H](CCCNC(=N)N)C(N)=O)nn3)[C@H](O)[C@H](C)O2)Oc2ccc(cc2Cl)[C@H]1O [compound 16]
- R, mass retention (PAMPA-BBB assay; 20 h incubation, mean ± SEM): 37.3 ± 4.8%
